Consider four molecules from article PMC7084690, “N-terminal Backbone Pairing Shifts in CCL5-^12AAA^14 Dimer Interface: Structural Significance of the FAY Sequence” (International Journal of Molecular Sciences, 2020).

In data set [1] the target is T1, CCL5-F12A (human), P13501.
T1 chain: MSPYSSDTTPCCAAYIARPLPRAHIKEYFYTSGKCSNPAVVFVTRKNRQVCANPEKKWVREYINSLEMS
Briefly: NMR titration; pH titration followed by 1H,15N-HSQC; this point pH 3.2; 0.2 mM 15N-labelled protein, 25 mM sodium acetate, 150 mM NaCl, 10% D2O, 298 K; monomer to dimer. The note with it: remark: other sources report otherwise.

Data set [2] deals with the molecule itself. Briefly: NMR titration; pH titration followed by 1H,15N-HSQC; this point pH 5.0 (for the wild type maintained until pH 6.0); 0.2 mM 15N-labelled protein, 25 mM sodium acetate, 150 mM NaCl, 10% D2O, 298 K; dimers to soluble oligomers, read from the loss of resonance intensity.
Data set [3] deals with the molecule itself. Put plainly: NMR titration; pH titration followed by 1H,15N-HSQC; this point pH 3.2; 0.2 mM 15N-labelled protein, 25 mM sodium acetate, 150 mM NaCl, 10% D2O, 298 K; monomer to dimer.
Data set [4] deals with the molecule itself. Briefly: NMR backbone relaxation (15N-R1, 15N-R2, 1H-15N NOE); pH 3.2, 298 K, 600 MHz, in the absence or presence of 180 mM ammonium sulfate; oligomeric state from R1, R2 and the R2/R1 ratio; monomer to dimer.

B1: CCL5-F12A, P13501 24-91 (natural protein)
chain: MSPYSSDTTPCCAAYIARPLPRAHIKEYFYTSGKCSNPAVVFVTRKNRQVCANPEKKWVREYINSLEMS
Broadly, the stoichiometry N is the number of molecules, sites or subunits per partner or assembly. Molecule B1 yielded a stoichiometry N in data set [1] of 2.

B2: CCL5-Y14A (natural protein, human)
chain: MSPYSSDTTPCCFAAIARPLPRAHIKEYFYTSGKCSNPAVVFVTRKNRQVCANPEKKWVREYINSLEMS
notes: starting Met residue (M0) that precedes residues 1-68 of the mature CCL5; CCL5 (RANTES), human, residues 1-68 of the mature CCL5, with Y14A; numbers count on: the mature protein; 15N-labelled for the NMR experiments
Take B2: the binding result in data set [2] is “binds”.

B3: human CC-type chemokine ligand 5 (CCL5) (natural protein)
chain: MSPYSSDTTPCCFAYIARPLPRAHIKEYFYTSGKCSNPAVVFVTRKNRQVCANPEKKWVREYINSLEMS
notes: starting Met residue (M0) that precedes residues 1-68 of the mature CCL5; CCL5 (RANTES), human, residues 1-68 of the mature CCL5; numbers count on: the mature protein; 15N-labelled for the NMR experiments; vector pET43.1a(+); also called RANTES; native CCL5
In the case of B3, the “stoichiometry N” value in data set [3] came to 2.

B4: CCL5-12AAA14 (natural protein, human)
chain: MSPYSSDTTPCCAAAIARPLPRAHIKEYFYTSGKCSNPAVVFVTRKNRQVCANPEKKWVREYINSLEMS
notes: starting Met residue (M0) that precedes residues 1-68 of the mature CCL5; numbers count on: the mature protein; 15N- or 15N,13C-labelled for the NMR experiments; In the crystal the first five N-terminal residues were not modelled; also called 12AAA14 mutant
Take B4: the “stoichiometry N” value in data set [4] was 2.
